Measurements taken from patent US20220204643A1 (published 2022).

Experiments:
[1] = molecular target: T1, Vezatin, adherens junctions transmembrane protein (human, UniProt Q9HBM0 56-779 at identity 0.99)); assay: protein array
T1 construct: on protein array; also called VEZT
T1 chain: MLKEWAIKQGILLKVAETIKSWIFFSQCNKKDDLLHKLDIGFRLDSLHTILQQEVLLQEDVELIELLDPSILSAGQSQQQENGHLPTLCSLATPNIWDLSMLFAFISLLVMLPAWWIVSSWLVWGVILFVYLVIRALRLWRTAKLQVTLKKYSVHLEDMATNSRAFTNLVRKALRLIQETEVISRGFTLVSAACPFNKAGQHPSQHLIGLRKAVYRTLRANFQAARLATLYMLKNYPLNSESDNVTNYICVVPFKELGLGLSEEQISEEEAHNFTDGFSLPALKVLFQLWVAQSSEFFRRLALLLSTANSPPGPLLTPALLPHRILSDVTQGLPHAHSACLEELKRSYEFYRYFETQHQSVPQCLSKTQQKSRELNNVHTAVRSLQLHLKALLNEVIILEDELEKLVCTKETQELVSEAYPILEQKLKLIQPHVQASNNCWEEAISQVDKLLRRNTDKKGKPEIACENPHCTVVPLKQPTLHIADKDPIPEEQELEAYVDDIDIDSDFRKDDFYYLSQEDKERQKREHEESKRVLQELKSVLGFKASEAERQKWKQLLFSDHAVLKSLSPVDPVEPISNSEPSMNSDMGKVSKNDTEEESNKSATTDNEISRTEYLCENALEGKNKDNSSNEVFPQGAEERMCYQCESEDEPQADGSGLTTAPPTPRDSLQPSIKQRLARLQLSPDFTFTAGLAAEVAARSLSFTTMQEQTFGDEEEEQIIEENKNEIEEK

DEAD-box helicase 53 = molecular target: T2, DEAD-box helicase 53 (human, UniProt Q86TM3 1-631); assay: protein array
T2 construct: on protein array; also called DDX53
T2 sequence (Q86TM3 other isoform, or with tags, fused parts or gaps limits assumed): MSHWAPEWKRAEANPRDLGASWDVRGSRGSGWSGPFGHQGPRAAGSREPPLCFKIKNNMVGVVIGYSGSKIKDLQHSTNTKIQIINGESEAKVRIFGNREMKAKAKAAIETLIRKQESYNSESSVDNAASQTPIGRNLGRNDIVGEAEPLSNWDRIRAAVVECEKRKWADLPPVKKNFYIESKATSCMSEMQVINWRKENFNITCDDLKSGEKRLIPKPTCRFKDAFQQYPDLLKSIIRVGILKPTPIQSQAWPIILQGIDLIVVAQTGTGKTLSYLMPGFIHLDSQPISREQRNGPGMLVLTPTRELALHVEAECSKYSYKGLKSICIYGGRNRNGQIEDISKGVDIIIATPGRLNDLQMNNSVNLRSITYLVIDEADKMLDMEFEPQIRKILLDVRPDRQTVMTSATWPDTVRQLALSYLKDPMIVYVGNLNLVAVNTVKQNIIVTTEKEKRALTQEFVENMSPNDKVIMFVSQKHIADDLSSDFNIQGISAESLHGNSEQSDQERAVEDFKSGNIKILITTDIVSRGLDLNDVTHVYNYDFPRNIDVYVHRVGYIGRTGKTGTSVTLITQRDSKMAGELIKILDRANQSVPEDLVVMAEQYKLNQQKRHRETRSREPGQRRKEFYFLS

[2] = molecular target: T3, sorting nexin 1, transcript variant 1 (human, UniProt Q13596 1-522); assay: protein array
T3 construct: on protein array; also called SNX1
T3 sequence (Q13596 whole entry, change not shown): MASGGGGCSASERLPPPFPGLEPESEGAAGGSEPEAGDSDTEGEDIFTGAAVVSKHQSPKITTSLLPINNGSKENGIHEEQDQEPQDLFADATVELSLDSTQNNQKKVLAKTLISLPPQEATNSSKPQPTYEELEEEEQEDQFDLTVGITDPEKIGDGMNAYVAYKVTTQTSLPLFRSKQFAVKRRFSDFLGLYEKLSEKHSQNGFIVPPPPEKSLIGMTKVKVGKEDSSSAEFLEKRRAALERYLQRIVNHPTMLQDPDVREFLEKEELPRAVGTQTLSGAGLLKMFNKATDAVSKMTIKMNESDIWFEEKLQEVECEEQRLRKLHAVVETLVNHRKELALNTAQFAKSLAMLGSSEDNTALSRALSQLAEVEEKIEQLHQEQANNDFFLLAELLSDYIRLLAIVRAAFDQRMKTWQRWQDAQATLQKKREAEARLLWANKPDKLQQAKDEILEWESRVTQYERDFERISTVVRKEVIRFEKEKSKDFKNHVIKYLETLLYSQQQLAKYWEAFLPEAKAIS

[3] = molecular target: T4, HEAT repeat containing 3, transcript variant 1 (human, UniProt Q7Z4Q2 1-680); assay: protein array, with experimental replicate
T4 construct: on protein array; also called HEATR3
T4 sequence: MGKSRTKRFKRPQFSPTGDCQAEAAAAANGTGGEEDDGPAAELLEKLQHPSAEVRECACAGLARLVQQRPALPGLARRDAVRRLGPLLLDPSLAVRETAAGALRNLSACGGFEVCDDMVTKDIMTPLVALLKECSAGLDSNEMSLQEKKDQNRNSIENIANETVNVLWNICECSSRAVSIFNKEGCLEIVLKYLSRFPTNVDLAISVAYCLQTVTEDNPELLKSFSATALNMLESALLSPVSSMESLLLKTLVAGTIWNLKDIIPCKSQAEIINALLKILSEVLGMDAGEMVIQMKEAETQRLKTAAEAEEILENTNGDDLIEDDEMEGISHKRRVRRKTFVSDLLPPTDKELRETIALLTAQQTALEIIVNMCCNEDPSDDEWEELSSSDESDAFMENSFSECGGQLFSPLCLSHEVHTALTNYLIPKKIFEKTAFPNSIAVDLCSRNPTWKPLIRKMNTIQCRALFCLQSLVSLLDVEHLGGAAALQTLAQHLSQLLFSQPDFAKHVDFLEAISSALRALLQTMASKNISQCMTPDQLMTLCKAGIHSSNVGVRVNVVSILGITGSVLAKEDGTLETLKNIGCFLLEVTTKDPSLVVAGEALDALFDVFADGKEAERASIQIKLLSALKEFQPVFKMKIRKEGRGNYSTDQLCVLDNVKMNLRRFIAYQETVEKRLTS

[4] = molecular target: T5, grancalcin, transcript variant 4 (human, UniProt P28676 1-217); assay: protein array
T5 construct: on protein array; also called GCA
T5 sequence: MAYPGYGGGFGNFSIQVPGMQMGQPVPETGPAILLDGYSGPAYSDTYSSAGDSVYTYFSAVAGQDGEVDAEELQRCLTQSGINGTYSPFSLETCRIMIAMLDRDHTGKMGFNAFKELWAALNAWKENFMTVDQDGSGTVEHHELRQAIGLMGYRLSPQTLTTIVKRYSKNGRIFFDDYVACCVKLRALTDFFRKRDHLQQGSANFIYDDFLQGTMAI

tubulin gamma 1 = molecular target: T6, tubulin gamma 1 (human, UniProt P23258 1-451); assay: protein array
T6 construct: on protein array; also called TUBG1
T6 sequence (P23258 whole entry): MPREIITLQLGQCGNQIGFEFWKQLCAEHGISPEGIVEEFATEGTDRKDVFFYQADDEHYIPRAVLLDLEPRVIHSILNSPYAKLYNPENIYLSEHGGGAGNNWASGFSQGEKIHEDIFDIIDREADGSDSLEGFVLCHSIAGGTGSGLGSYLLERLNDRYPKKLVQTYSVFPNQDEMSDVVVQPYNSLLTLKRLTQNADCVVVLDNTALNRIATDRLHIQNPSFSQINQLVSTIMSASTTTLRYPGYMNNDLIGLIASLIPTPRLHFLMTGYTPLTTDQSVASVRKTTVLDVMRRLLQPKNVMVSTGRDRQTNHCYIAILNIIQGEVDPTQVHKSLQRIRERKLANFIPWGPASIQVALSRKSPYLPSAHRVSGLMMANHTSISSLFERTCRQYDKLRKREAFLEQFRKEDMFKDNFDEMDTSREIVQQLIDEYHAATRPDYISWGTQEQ

F-box protein 2 = molecular target: T7, F-box protein 2 (human, UniProt Q9UK22 1-296); assay: protein array
T7 construct: on protein array; also called FBXO2
T7 sequence: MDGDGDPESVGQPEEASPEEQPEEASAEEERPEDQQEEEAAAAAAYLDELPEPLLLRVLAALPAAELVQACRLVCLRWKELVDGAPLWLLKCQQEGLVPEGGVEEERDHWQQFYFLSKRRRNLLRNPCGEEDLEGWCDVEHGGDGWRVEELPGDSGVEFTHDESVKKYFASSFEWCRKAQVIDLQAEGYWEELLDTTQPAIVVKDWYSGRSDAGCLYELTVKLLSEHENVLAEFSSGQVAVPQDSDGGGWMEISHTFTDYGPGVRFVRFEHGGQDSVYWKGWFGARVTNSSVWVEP

[5] = molecular target: T8, Rna polymerase iii subunit g (human, UniProt O15318 1-223); assay: protein array
T8 construct: on protein array; also called POLR3G
T8 sequence: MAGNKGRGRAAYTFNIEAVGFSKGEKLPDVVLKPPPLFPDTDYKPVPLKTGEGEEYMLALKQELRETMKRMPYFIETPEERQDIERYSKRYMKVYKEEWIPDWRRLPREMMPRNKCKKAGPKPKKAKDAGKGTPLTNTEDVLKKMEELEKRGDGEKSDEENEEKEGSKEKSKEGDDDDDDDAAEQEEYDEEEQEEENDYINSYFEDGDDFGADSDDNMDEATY

[6] = molecular target: T9, CRK like proto-oncogene, adaptor protein, transcript variant 1 (human, UniProt P46109 1-303); assay: protein array, with experimental replicate
T9 construct: on protein array
T9 sequence (P46109 whole entry, change not shown): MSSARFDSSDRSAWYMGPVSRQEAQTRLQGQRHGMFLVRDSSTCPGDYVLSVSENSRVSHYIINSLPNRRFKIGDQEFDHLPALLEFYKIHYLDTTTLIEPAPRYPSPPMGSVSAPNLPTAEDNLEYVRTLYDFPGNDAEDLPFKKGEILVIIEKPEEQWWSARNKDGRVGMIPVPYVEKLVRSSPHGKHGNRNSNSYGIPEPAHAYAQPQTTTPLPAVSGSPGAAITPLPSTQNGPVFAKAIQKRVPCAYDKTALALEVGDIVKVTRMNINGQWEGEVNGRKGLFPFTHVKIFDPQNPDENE

[7] = molecular target: T10, nudix hydrolase 22, transcript variant 2 (human, UniProt Q9BRQ3 1-303); assay: protein array
T10 construct: on protein array; also called NUDT22
T10 chain: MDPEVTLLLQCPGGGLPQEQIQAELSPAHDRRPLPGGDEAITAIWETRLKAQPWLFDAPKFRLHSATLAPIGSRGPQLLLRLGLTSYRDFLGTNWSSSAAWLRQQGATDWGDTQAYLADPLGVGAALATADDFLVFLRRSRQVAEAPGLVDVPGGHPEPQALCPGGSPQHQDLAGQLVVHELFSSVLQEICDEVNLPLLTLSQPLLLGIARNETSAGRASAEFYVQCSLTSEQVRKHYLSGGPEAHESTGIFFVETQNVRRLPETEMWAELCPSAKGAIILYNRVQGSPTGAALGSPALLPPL

Deoxyhypusine synthase = molecular target: T11, Deoxyhypusine synthase (human, UniProt P49366 1-369); assay: protein array
T11 construct: on protein array; also called DHPS
T11 sequence: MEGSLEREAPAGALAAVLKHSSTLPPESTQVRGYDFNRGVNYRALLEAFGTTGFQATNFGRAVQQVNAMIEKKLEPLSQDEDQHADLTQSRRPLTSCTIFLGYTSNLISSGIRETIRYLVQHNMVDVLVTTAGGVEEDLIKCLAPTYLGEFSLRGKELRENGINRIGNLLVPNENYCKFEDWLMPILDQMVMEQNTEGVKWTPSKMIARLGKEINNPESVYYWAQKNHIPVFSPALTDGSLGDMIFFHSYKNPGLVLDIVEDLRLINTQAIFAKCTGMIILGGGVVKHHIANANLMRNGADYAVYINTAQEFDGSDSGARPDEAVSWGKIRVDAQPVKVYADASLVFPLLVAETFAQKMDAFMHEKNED

B1: TOVA1005 (antibody, V domains shown)
VH: QITLKESGPTLVKPTQTLTLTCTFSGFSLSTNGVGVGWIRQPPGKALEWLALINWDDDKRYSPSLKSRLTITKDTSKNQVVLTMTNLDPVDTATYYCVHARDDYGDSAWSTGPVWGQGTLVTVSS
VL: DFLLTQPHSVSESPGKTVTISCTRSSGSIASNYVQWYQQRPGSSPSTVIYEDHQRPSGVPGRFSGSIDSSSNSASLTISGLKTEDEADYFCQSSDSNNHVVFGGGTKLTVLG
notes: VH/VL tied via antigen in summary, not by name in this stretch
[1]
  binding result: binds
DEAD-box helicase 53
  binding result: binds

B2: TPAN1004 (antibody, V domains shown)
VH: QIQLVQSGAEVKKPGASVKVSCKTSGYTFTHYGVAWVRQAPGQGPEWMGWISPYNGNIEYGQKFQGRVTMTTDTSTNTAYMELRSLRYDDTAVYYCARDLDEINSSWLDPWGQGTLIIVSP
VL: EIVLTQSPATLSLSPGERATLSCRASQSVSSNYLAWYQQKPGQAPRLLIHGASSRATGFPDRFSGSGSGTDFTLTINRLEPEDFAVYYCQQYGTSPQTFGQGTKVEIKR
notes: as for B1
[2]
  binding result: binds

B3: TOVA1004 (antibody, V domains shown)
VH: EVQLVESGGGLVKPGGSLRLSCAASGFTFSSYSMNWVRQAPGKGLEWVSSISSSSSYIYYADSVKGRFTISRDNAKNSLYLQMNSLRAEDTAVYYCARDRGVVVVAATPYYYGMDVWGQGTTVTVSS
VL: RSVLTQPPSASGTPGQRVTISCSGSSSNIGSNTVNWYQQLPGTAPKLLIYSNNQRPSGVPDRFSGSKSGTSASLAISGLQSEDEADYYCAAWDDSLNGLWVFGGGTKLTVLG
notes: as for B1
[3]
  binding result: binds

B4: TPAN1001 (antibody, V domains shown)
VH: QVQLVQSGAEVKKPGSSVKVSCKASRGTFSNHAVSWVRQAPGQGLEWVGGIIPVFGPPNYAQKFRGRVTITADRSTNTAYMELNSLRSEDTAVYYCARTQWGTDVEATNPYYYFMDVWGKGTTVTVSS
VL: EIVLTQSPGTLSLSPGHRATLSCRASQDVASTYLAWYQQKPGQAPRLLIYGASSRATGIPDRFSGSGSGTDFTLTISRLEPEDFAVFYCQYYGGSPGFTFGPGTKVDFKR
notes: as for B1
[4]
  binding result: binds

B5: TPAN1007 (antibody, V domains shown)
VH: PVQLVQSGAEVKKPGESLKISCQGSGYNFSRYWIGWVRQMPGKGLEWMGVVFPGDSDIRYSLSFQGHITIYADNSISTAYLQWSSLKASDTAIYYCATTSTMPMPTRGRDWFDPWGQGTLVTVSS
VL: PSVLTQPPSVSGAPGQRVTISCTGSSSNIGAGYDVHWYQQLPGTAPKLLIYANTNRPSGVPDRFSGSKSGTSASLAITGLQAEDEADYYCQSYDNSLSGGVFGGGTKLTVLG
notes: as for B1
Tubulin gamma 1
  binding result: binds
F-box protein 2
  binding result: binds

B6: TPAN1003 (antibody, V domains shown)
VH: QVQLVQSGAEVKKPGASVKISCQAFGYNFIDNAIHWVRQAPGQRPEWMGWINAGNGNTRYSQNFQGRVTITKVTSASTAYMEMSRLKSEDTAVYFCARSSKWTDWHFDYWGQGTLVTVSS
VL: EIVLTQSPGTLSLSPGETATLSCRASQSVANNYLAWHQQKPGQAPRLLIYGASKRAAGIPDRFSGSGSGTEFTLTISRLEPEDCAVYYCQEYVKSPGFAFGPGTRVDIKR
notes: as for B1
[5]
  binding result: binds

B7: TPAN1006 (antibody, V domains shown)
VH: QVQLVQSGAEVKKPGASVKLSCKPSGYTFSSYYIHWLRQAPGQGLEWMGIINPSGGYTSSAQKFQGRVTMTRDTSTSTIYMELSSLRAEDTAVYYCARRGEVGTMVRVFRKPFDYWGQGTLVTVSS
VL: QSVLTQPPSVSGAPGQRVTISCTGSSSNIGAQYDVHWYKVIPGTAPKLLIYGNDNRPSGVPDRFSGSKSGTSASLAITGLQSEDEADYYCQSNDISLSGSVVFGGGTKLTVLG
notes: as for B1
[6]
  binding result: binds

B8: TOVA1007 (antibody, V domains shown)
VH: PVQLQESGPGLVNPSQTLSLTCTVSGGSISSGGYCWSWVRQHPGKGLEWIGCIYYIGTTYYMRSLKSRLIISIDTSKNQFSLKLTSVTAADSAVYYCARGGELLGGFGYSGMDVWGQGTTVTVSS
VL: not shown
notes: as for B1
[7]
  binding result: binds

B9: TOVA1003 (antibody)
VH: GEQLLESGGGLVQPGGSLRLSCAASGFTFSHYAMTWVRQAPGKGLEWVSGVSGSGFTTYYADSVKGRFTISRDNAQNTLYLHMNSLRAEDTAIYYCVKDLEVSIGHNFDFWGQGTLVTVSSASTKGPSVFPLAPSSKSTSGGTAALGCLVKDYFPEPVTVSWNSGALTSGVHTFPAVLQSSGLYSLSSVVTVPSSSLGTQTYICNVNHKPSNTKVDKRV
VL: EVQMTQSPSSLSASVGDRVTITCRASQHIAGRLNWYQQKPGKAPKLLIHSASSVQREVPSRFGGSGFGTDFTLTIYSLQAEDFATYFCQQSYYTPPTFAGGTRVDLKRTVAAPSVFIFPPSDEQLKSGTASVVCLLNNFYPREAKVQWKVDNALQSGNSQESVTEQDSKDSTYSLSSTLTLSKADYEKHKVYACEVTHQGLSSPVTKSFNRGEC
notes: as for B1
Deoxyhypusine synthase
  binding result: binds
